Experiment [1] has as its target T1, purified human α5β1-integrin (Homo sapiens, UniProt P05556+P08648).
T1 construct: purchased Chemicon International (Temecula, Calif.)
Briefly: Solid phase dot-ELISA: α5β1-integrin binding to immobilized uPAR peptides and suPAR. As to conditions: for α5β1-integrin binding to immobilized peptide: peptide immobilized on nitrocellulose, α5β1-integrin 750 ng/ml. Here is the method:
FIGS. 1A-H show the interaction between α5β1-integrin and immobilized uPAR and uPAR-derived synthetic peptides through solid-phase dot-ELISA. […] Bound integrin was detected with anti-α5 integrin antibody followed by goat anti-rabbit IgG (H+L) HRP conjugated secondary antibody and developed with enhanced chemiluminescence (“ECL”). FIG. 1B is a graph showing that binding of integrin to suPAR is saturable. SuPAR (1.5 μg) was immobilized on nitrocellulose membrane in triplicates, incubated with 0, 0.1, 0.5, 1, 2, and 4 μg/ml of α5β1-integrin and tested for integrin binding as in FIG. 1A. The dots were scanned with NIH Image. Mean and SE are shown. […] Peptides representing regions located in each of the three uPAR-domains were immobilized, incubated with α5β1-integrin, and analyzed as in FIG. 1A. Only peptide 240-248 binds α5β1-integrin. FIG. 1D is a graph showing that peptide 240-248 inhibits integrin binding to suPAR. The α5β1-integrin (750 ng/ml) was pre-incubated for 15 min at room temperature with 100 fold molar excess of 240-248 or 17-24 peptides, or with no peptide (Control) and the mixtures were applied to immobilized suPAR (1.5 μg), 2 dots per mixture, and developed as in FIG. 1A. The dots were scanned with NIH Image. The results (bars) show % of control, the lines show range. FIG. 1E is a graph showing binding of α5β1- and α3β1-integrin to suPAR and peptide 240-248. Dot-ELISA was performed in duplicate as in FIG. 1A, except that purified α5β1-integrin and α3β1-integrin (750 ng/ml) were used. Bound integrins were detected with the appropriate previously titrated antibodies followed by goat anti-rabbit IgG (H+L) HRP conjugated secondary antibody and detection with ECL. The graph represents the mean and range of two values: α5β1-integrin binding to peptide 240-248 (▪) or SuPAR (▴); α3β1-integrin binding to peptide 240-248 ([…]) and SuPAR (x). […] Peptide 240-248 (domain III), 17-24 (domain I), and the S245A mutant of peptide 240-248 were immobilized and tested for integrin binding as in FIG. 1A. FIGS. 1G-H show the crystal structure of human uPAR shown as a surface representation. The three individual domains of uPAR in FIG. 1G are indicated as follows: D1 is on the right side, DII is on the top of the model, and Diii is on the left of the model. In FIG. 1H, the order of the domains is inversed. […] The location of the COOH-terminal in uPAR domain III harboring the GPI-anchor is indicated by the arrow (FIG. 1H). FIGS. 1G-H were created by the program PyMol (DeLano Scientific) using the coordinates 1YWH.
FIGS. 2A-B show solid phase dot-ELISA of suPAR. […] Binding was detected as in FIG. 1A and the dots were scanned with NIH Image. Mean of the two-scanned value for each suPAR concentration are shown in the bottom panel. Mutation of residues in the 239-249 sequence reduced the integrin binding by ˜50 to 94%. suPAR^E33A (▪), suPAR^wt (▴), suPAR^R239A (♦), suPAR^H249A (x), suPAR^Q248A (∘), suPAR^M246A ([…]), suPAR^S245A (□).
Synthetic uPAR-derived peptides and mutant proteins were diluted to 0.5, 1, and 2 μg/100 μl of PBS. […] The strips, pinned to the bottom of a plastic box, were washed with TBS with 0.1% Tween 20, overlaid with 500 μl of rabbit anti-integrin α5 polyclonal antibody (1:650) for 1 hr at RT, washed with TBST twice, incubated with goat anti-rabbit IgG (H+L) HRP conjugated secondary antibody (1:2000) for 1 hr, washed 3 times with TBST, and developed with ECL. The dots were scanned with NIH image.
A general note: In an ELISA, binding on a coated surface is turned into a signal by an enzyme label.

Experiment [2] deals with T-HEp3 cells. Description: Screening of compounds by luciferase assay (Luc-Elk activity as readout for ERK). Type of experiment: cell-based, human. To be noted: 5 μM compound, 16 h. How it is done:
To test the effect of uPAR-integrin disruption by uPAR-docked compounds on ERK activation, T-HEp3 cells were transiently co-transfected with pFA-Elk1-fusion plasmid and pD700-luciferase plasmid in a 96-well plate. These plasmids report the state of ERK activation through luciferase activity level. After 24 h of transfection, cells were serum starved for 5 h and incubated with PD98059 (Calbiochem, San Diego, Calif.) (25 and 50 μM) and 5 μM of each compound prepared in DMEM. Following 16 h of incubation with compounds, the cells were lysed directly in Steady glo-luciferase lysis buffer (1:1) from Promega and read on Tecan Safire2™ using Magellan 6.0 software. Histographs representing the percent inhibition of Luc-Elk activity as readout for ERK reduction were generated.

For experiment [3], the system named is T-HEp3 cells. Description: Fibronectin-fibrils disruption. Type of experiment: cell-based, human. As to conditions: cells displaying fibronectin fibrils; control had 90.2% fibril positive cells; compounds 5 and 10 μM, 16 h. How it is done: To test the effects of fibronectin-fibril disruption by the compounds, T-HEp3 cells were incubated in 5% fibronectin-depleted fetal bovine serum (FBS)/DMEM with 0, 2.5, 5, 7, and 10 μM of the compounds or anti-uPAR antibody (R2, 20 μg/ml) or anti-α5β1 antibody (BIIG2, 20 μg/ml) or MEK inhibitor (PD98059, 25 μM) as a […] at room temperature for 15 min prior to plating them in chambered slides. […] The cells were fixed with 3% paraformaldehyde for 20 min and the bound fibronectin was detected using rabbit anti-human fibronectin antibody and with FITC-conjugated secondary antibody.
Compounds MS0012479 and MS0019128 and their analogs were tested for fibronectin-fibril disruption. […] A total of 700 to 1150 cells were counted in 5 individual fields. Cells displaying fibronectin fibrils were then counted and expressed as a percentage of total cells. The mean obtained from the compound-treated cells was expressed as a percentage of control. The control had 90.2% of fibril positive cells (Table 2).

The target of a further experiment is T2, β1-integrin (Homo sapiens, UniProt P05556).
T2 construct: endogenous in cells; host or cells: HEK293 cells (ATCC), transiently transfected with pcDNA3.1 vector, uPAR^wt or uPAR^S245A
T2 sequence (P05556 21-798): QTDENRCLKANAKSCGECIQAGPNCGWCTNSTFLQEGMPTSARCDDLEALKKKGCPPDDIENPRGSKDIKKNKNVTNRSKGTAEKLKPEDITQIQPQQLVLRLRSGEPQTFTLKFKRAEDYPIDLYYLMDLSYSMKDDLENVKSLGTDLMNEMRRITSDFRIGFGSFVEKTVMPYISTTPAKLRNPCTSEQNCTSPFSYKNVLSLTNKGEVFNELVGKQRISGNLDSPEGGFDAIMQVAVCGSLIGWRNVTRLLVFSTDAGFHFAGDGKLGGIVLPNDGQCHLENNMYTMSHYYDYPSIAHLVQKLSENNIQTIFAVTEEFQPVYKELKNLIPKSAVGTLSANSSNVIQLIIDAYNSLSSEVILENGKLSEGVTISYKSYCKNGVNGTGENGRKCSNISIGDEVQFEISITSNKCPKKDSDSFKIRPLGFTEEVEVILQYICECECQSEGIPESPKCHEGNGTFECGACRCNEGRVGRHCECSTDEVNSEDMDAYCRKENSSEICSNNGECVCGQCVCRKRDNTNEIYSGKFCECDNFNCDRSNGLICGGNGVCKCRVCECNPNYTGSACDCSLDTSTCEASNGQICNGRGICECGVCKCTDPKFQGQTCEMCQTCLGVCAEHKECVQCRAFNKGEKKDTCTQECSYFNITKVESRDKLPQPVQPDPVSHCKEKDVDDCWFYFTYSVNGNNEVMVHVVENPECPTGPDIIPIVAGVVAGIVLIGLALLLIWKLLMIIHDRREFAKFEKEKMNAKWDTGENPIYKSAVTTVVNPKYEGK
T2 sequence (P08648 42-894 partner limits assumed): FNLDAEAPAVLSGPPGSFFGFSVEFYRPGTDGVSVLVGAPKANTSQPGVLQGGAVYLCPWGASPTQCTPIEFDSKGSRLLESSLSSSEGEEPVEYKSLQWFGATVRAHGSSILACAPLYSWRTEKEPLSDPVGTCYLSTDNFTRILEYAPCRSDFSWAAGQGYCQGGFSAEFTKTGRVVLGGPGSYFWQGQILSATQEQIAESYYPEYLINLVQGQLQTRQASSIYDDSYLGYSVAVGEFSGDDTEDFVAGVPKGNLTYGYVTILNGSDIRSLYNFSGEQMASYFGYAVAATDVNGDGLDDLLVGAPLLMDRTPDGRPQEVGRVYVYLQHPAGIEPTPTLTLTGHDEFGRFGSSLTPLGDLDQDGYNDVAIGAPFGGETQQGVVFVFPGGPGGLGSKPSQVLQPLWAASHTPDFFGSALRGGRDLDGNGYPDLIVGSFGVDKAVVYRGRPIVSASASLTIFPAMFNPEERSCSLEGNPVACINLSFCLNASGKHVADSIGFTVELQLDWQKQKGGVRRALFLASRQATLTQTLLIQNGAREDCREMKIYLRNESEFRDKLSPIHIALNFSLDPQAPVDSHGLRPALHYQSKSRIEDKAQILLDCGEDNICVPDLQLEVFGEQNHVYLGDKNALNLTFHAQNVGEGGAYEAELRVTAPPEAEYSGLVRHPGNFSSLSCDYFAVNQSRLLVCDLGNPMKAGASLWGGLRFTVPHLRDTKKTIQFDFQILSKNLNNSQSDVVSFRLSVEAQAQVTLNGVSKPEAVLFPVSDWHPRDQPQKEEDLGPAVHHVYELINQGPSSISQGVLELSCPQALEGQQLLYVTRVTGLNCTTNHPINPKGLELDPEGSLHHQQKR
T2 sequence (P08648 895-1049 partner limits assumed): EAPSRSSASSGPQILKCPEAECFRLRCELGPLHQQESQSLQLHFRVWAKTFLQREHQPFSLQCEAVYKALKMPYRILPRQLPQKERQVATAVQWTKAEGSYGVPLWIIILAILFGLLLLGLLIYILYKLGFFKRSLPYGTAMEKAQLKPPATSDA
Briefly: Detection of active β1 integrin by FACS (HUTS-4 antibody). As to conditions: vector transfected HEK293 cells; 1 mM MnCl2; untreated 50.9%. Type of experiment: cell-based. How it is done: FIGS. 3A-C illustrate that […] expressed in cells has reduced ability to activate α5β1-integrin. […] HEK293 cells were transfected with pcDNA3.1 (vector), uPAR^wt, or uPAR^S245A and used 48 hrs later. Vector-transfected cells incubated with medium alone or with medium with 1 mM MnCl2, followed by HUTS-4 and uPAR-transfected cells (uPAR^wt and uPAR^S245A) incubated with HUTS-4 or isotype matched Ig (IgG2b) were then incubated with secondary rabbit-anti mouse IgG coupled to Alexa 488. uPAR expression was detected using anti-uPAR antibody (R2). In the upper panels, the results are plotted as number of events vs. fluorescence intensity. The numbers indicate percent of total population above the median fluorescence intensity determined in vector-transfected cells. The lower panel relates to overlay of uPAR in uPAR^wt (black line) and uPAR^S245A (grey line) transfected cells. […] Cell-bound fibronectin was detected by immunofluorescence 48 hrs after transfection. […] HEK293 cells plated in 60 mm dishes were transfected and treated as in FIG. 3B, and the DOC-insoluble fibronectin was analyzed by 6% PAGE and Western blot under non-reducing conditions. […]
HEK293 cells were transiently transfected with pcDNA3.1, uPAR^wt, and uPAR^S245. […] Finally, cells were washed and suspended in 400 μl of FACS buffer and analyzed in FACS Canto (Becton Dickinson, Calif.) using FACSDiva software. […]

In experiment [4] the target is α5β1-integrin endogenous on HEK293, D-HEp3 and T-HEp3 cells (human) (UniProt P08648). Briefly: cell-based or functional assay.
α5β1-integrin endogenous on HEK293, D-HEp3 and T-HEp3 cells (human), sequence (P08648 42-1049, chain 1 of 2): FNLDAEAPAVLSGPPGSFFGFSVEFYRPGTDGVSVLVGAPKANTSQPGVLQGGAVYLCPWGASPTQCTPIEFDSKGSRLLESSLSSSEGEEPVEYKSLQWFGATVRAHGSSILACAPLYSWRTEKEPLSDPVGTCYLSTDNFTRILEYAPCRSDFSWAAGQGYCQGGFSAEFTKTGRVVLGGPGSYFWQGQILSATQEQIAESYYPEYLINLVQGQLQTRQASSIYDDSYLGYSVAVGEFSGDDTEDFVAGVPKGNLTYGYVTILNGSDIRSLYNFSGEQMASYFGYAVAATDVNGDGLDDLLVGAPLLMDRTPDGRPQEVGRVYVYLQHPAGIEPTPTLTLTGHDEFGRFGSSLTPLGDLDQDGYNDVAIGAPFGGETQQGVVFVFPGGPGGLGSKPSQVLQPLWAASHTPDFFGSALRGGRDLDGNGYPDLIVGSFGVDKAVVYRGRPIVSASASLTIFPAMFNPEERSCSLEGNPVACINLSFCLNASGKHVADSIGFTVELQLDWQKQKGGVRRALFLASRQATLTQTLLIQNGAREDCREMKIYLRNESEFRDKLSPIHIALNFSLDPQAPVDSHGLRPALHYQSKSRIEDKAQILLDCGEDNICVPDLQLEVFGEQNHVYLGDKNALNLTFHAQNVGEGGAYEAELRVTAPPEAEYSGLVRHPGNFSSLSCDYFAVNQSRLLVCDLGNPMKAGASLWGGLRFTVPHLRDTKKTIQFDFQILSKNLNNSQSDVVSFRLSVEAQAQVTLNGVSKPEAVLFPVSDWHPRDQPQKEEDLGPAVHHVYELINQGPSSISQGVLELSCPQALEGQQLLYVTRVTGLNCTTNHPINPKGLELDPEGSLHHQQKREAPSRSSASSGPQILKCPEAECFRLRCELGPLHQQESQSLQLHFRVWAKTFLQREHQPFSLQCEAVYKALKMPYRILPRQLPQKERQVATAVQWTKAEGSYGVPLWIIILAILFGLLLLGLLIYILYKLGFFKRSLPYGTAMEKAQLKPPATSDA
α5β1-integrin endogenous on HEK293, D-HEp3 and T-HEp3 cells (human), sequence (P05556 21-798, chain 2 of 2, further chain): as the sequence (P05556 21-798) above
In experiment [5] the target is endogenous β1 integrin on HEK293 cells (active state) (human) (UniProt P05556). Description: flow cytometry, vector-transfected HEK293 cells, medium alone.
endogenous β1 integrin on HEK293 cells (active state) (human), sequence (P05556 21-798): as above
Experiment [6] has the same target. Briefly: flow cytometry, HEK293 cells expressing uPAR^S245A.
For experiment [7] the target is unchanged. Briefly: flow cytometry, HEK293 cells expressing uPAR^wt. (Flow cytometry measures light scatter and fluorescence of single cells or particles in a stream.)
Experiment [8] has the same target. Briefly: flow cytometry, vector-transfected HEK293 cells treated with Mn++ (1 mM MnCl2).
The target in experiment [9] is T3, immobilized pro-uPA^S356A (Homo sapiens, UniProt P00749, S376A).
T3 construct: Coupling of pro-uPA^S356A to the sensor chip by EDC/NHS
Briefly: Kinetics of pro-uPA/uPAR interaction by surface plasmon resonance. Type of experiment: binding. As to conditions: soluble uPAR (residues 1-283), 20° C. On the technique in general: Surface plasmon resonance follows binding to a sensor surface in real time, without labels.

These results are taken from patent US20100249184A1, “INDUCTION AND/OR MAINTENANCE OF TUMOR DORMANCY BY DISRUPTION OF UROKINASE PLASMINOGEN ACTIVATOR RECEPTOR-INTEGRIN INTERACTION” (MOUNT SINAI SCHOOL OF MEDICINE, priority 2007, published 2010).

Entries after “also recorded” stand apart in the source; their conditions may differ.

T1 sequence (P08648 42-894 limits assumed): as the sequence (P08648 42-894 partner limits assumed) above
T1 sequence (P08648 895-1049 limits assumed): as the sequence (P08648 895-1049 partner limits assumed) above
T1 sequence (P05556 21-798): as the sequence (P05556 21-798) above

As for “66-74: synthetic uPAR-derived peptide, domain I 66-74: LTEVVCGLD (SEQ ID NO:6)”, the “α5β1-integrin binding to immobilized peptide” value in [1] is given as “no binding”.

Regarding “84-95: synthetic uPAR-derived peptide 84-95: AVTYSRSRYLEC (SEQ ID NO:7)”, the “α5β1-integrin binding to immobilized peptide” value in experiment [1] is listed as “no binding”. For the compound “108-118: synthetic uPAR-derived peptide, domain II 108-118: GRHQSLQCRSP (SEQ ID NO:8)”, the “α5β1-integrin binding to immobilized peptide” value in experiment [1] is on record as “no binding”. Consider `N=C(N/N=C\c1cccc(O)c1)c1ccccn1` [MS0019126], for which the ERK inhibitory activity entry in the experiment on T-HEp3 cells [2] is reported as “very strong; also recorded: showed ERK inhibitory activity”. Further, the “Quantification (% of control)” value in the experiment with T-HEp3 cells [3] was 66.0 % of control. Consider `[Mn+2]` [Mn^++], for which the “population with fluorescence above the median (HUTS-4)” value on β1-integrin stood at 86.2%.

As for “BIIG2 (α5β1-integrin function blocking antibody)”, the fibronectin-fibril positive T-HEp3 cells, % of control in experiment [4] was 24.1 % of control. Consider HUTS-4 antibody, for which the % of population with fluorescence intensity above the median is 50.9% in [5], 44.6% in experiment [6], 74.4% in experiment [7] and 86.2% in experiment [8]. Take “uPAR mutant E33A: purified soluble uPAR (residues 1-283) with single amino acid mutation E33A in domain I”: in experiment [9], the koff is on record as 2.19 10^−4 S^−1 and the kon is listed as 2.52 10^5 m^−1 S^−1. In addition, the “α5β1-integrin binding of full-length recombinant suPAR with single amino acid mutation” value in experiment [1] (suPAR 0.5, 1.0, 2.0 μg immobilized, integrin 750 ng/ml) is on record as “no effect”. As for “uPAR mutant H249A: purified soluble uPAR single amino acid mutant H249A”, in experiment [9], the koff was 1.92 10^−4 S^−1 and the kon is reported as 3.84 10^5 m^−1 S^−1. Regarding “uPAR mutant L66A: soluble uPAR single site mutant L66A, control known to affect uPA-uPAR interaction”, in [9], the koff is on record as 10.6 10^−4 S^−1 and the kon is 2.26 10^5 m^−1 S^−1. For “uPAR mutant R239A: purified soluble uPAR single amino acid mutant R239A” the same measures were 1.48 10^−4 S^−1 and 2.33 10^5 m^−1 S^−1.
